Assay results as given in publication PMC11019746 (ACS Pharmacology & Translational Science, 2024).
One block for each molecule: values may come before it.

How the values were obtained:
[1] = biological target: T1, hY1R (Homo sapiens, UniProt P25929); test: Y1R radioligand competition binding, whole SK-N-MC cells, [3H]UR-MK299; details: SK-N-MC neuroblastoma cells, [3H]UR-MK299 c = […]; read-out: pKi ± SEM hY1R (converted)
T1 construct: host or cells: SK-N-MC neuroblastoma cells
T1 sequence (P25929 1-384): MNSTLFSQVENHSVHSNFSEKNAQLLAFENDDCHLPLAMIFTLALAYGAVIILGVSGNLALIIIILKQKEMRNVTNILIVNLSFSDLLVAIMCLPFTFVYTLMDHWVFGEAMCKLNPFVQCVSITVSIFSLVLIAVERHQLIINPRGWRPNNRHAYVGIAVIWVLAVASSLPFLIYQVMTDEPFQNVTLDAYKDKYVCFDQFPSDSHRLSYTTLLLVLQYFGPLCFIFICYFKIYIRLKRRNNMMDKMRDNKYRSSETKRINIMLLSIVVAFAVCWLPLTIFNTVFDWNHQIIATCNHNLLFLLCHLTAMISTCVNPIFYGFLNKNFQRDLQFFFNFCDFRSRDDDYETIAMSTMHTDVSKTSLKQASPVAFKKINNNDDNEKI
Method: (§1) All radioligand binding assays were performed at intact Y receptor expressing cells at 23 ± 2 °C.
Competition binding assays at Y1R-expressing SK-N-MC neuroblastoma cells were performed as previously described using [^3H]UR-MK299 as radioligand (concentration: 0.15 nM).[33] […] (logarithmic form in the case of pKi values).

[2] = biological target: T2, hY2R (Homo sapiens, UniProt P49146); test: Y2R radioligand competition binding, whole CHO-hY2R cells, [3H]propionyl-pNPY; details: read-out: pKi ± SEM hY2R (converted)
T2 construct: host or cells: CHO
T2 sequence (P49146 1-381): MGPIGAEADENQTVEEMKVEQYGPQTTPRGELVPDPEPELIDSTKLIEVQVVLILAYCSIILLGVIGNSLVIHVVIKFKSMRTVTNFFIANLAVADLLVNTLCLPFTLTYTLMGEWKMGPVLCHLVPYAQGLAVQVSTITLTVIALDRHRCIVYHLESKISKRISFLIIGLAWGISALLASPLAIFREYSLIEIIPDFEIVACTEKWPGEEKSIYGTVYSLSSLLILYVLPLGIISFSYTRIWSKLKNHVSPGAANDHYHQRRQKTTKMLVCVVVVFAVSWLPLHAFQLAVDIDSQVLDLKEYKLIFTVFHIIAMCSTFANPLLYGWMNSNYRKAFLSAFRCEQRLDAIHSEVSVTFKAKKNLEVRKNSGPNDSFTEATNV
Method: as §1

[3] = biological target: T3, hY4R (Homo sapiens, UniProt P50391); test: Y4R radioligand competition binding, whole CHO-hY4R-Gqi5-mtAEQ cells, [3H]UR-KK200; parameters: expressed in transfected cells; host or cells: CHO (co-expressing Gqi5 and mitochondrially targeted aequorin); details: [3H]UR-KK200 c = 1 nM, read-out: pKi ± SEM hY4R (converted)
Method: as §1
(§2) (logarithmic form in the case of pKi values).

[4] = biological target: T4, hY5R (Homo sapiens, UniProt Q15761); test: Y5R radioligand competition binding, whole HEC-1B-hY5R cells, [3H]propionyl-pNPY; details: [3H]propionyl-pNPY c = 5 nM, read-out: pKi ± SEM hY5R (converted)
T4 construct: expressed in transfected cells; host or cells: HEC-1B (human endometrial cancer)
T4 sequence (Q15761 1-445): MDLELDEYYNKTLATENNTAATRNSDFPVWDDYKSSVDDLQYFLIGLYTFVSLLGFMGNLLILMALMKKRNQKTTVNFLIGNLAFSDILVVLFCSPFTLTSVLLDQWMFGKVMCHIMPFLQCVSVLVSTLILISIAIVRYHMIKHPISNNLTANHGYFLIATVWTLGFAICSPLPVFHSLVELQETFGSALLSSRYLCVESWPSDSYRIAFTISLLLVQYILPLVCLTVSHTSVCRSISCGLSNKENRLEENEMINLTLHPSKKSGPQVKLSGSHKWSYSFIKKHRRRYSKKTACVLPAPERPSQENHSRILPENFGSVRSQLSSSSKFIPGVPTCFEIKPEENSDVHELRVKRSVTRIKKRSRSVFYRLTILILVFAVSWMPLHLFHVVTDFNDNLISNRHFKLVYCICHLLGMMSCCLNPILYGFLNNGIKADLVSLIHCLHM
Method: as §1, §2

[5] = biological target: T3, hY4R; test: Y4R Ca2+ aequorin assay (CHO-hY4R-Gqi5-mtAEQ cells); type: cell-based; parameters: expressed in transfected cells; host or cells: CHO (co-expressing Gqi5 and mitochondrially targeted aequorin)
Method: The assay was performed with live CHO-hY4R-Gqi5-mtAEQ cells as previously described (used buffer: buffer III). Measurements were carried out on a Tecan Infinite Lumi plate reader. Data analysis was performed as reported using GraphPad Prism 5 for the calculation of the area under the curve. […] Efficacies Emax correspond to the upper plateaus of the normalized concentration–response curves.

[6] = biological target: Y4R (Homo sapiens, UniProt P50391); test: Y4R miniGsi recruitment assay (HEK293T-NlucN-mGsi/Y4R-NlucC cells); type: cell-based; parameters: expressed in transfected cells; host or cells: HEK293T; details: read-out: miniGsi recruitment Emax ± SEM; also: relative to 1 µM hPP (100%)
Method: Furimazine was used as nanoluciferase substrate. The original stock was diluted 1:1000 in L15-HEPES to obtain the feed solution for the assay. Data analysis was performed based on the areas under the curves (time window: 45 min starting with the agonist addition) using GraphPad Prism 5. […] Efficacies Emax correspond to the upper plateaus of the normalized concentration–response curves.

[7] = biological target: hY4R-Nluc(intraECL2) (human) (UniProt P50391)
[8] = biological target: Sulfo-Cy5-[K4]hPP (Homo sapiens) (UniProt P01298); details: cited from earlier work
[9] = biological target: 5-TAMRA-[K18,Nle17,30]hPP (2) (Homo sapiens) (UniProt P01298); details: cited from earlier work
[10] = biological target: T5, human neuropeptide Y Y4 receptor (wild-type, CHO-hY4R-Gqi5-mtAEQ cells) (human, UniProt P50391 1-375); test: radioligand binding; competition with [^3H]UR-KK200 (1.0 nM) at intact CHO-hY4R-Gqi5-mtAEQ cells, 23 ± 2 °C, buffer I (sodium-free); details: one partner purified
T5 construct: The cells also express Gqi5 and mitochondrially targeted aequorin; also called wild-type Y4R

[11] = biological target: T5, human neuropeptide Y Y4 receptor …; test: cell-based or functional assay
[12] = biological target: T6, human neuropeptide Y Y2 receptor (human, UniProt P49146 1-381); test: radioligand binding; competition with [^3H]propionyl-pNPY (0.5 nM) at intact CHO-hY2R cells, 23 ± 2 °C, buffer I (sodium-free); details: one partner purified
T6 construct: also called hY2R; source: CHO-hY2R cells (from PerkinElmer), intact cells
T6 sequence (looked up): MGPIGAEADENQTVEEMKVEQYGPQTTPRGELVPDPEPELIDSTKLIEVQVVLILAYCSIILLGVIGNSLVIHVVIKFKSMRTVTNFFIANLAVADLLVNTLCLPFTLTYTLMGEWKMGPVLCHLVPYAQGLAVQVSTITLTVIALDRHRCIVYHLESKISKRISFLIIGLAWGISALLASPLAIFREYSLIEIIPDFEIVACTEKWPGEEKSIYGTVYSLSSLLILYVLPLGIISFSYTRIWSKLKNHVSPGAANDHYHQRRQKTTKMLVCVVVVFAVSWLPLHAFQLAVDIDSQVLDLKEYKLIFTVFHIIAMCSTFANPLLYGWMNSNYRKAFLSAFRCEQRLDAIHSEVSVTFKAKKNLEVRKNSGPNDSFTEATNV

[13] = biological target: human neuropeptide Y Y5 receptor (human) (UniProt Q15761); test: radioligand binding; competition with [^3H]propionyl-pNPY (5 nM) at intact HEC-1B-hY5R cells, 23 ± 2 °C, buffer II (150 mM NaCl)
[14] = biological target: human neuropeptide Y Y1 receptor (human) (UniProt P25929); test: radioligand binding; competition with [^3H]UR-MK299 ([…]) at intact SK-N-MC cells, 23 ± 2 °C, buffer II (150 mM NaCl)

Molecule: human pancreatic polypeptide (from UniProt P01298 30-65)
- pKi [7]: 7.7

Molecule: Y4 receptor (from UniProt P50391)
- Kd [8]: 5.6 nM
- Kd [9]: 26 nM

Now from value to molecule:

- Ki [1]: > 1000 nM
- Ki [2]: > 1000 nM
- Ki [3]: 0.603 nM
- Ki [4]: > 1000 nM
- EC50 ([5]; CHO-hY4R-Gqi5-mtAEQ cells, agonist mode, read-out: Ca2+-aequorin pEC50 ± SEM (converted)): 56.2 nM
- Emax ([5]; read-out: Ca2+-aequorin Emax ± SEM): 64 ± 2%
- Emax [6]: 43 ± 1%
Molecule: Cc1cc(/C=C/C=C/c2ccc(N(C)C)cc2)cc(C)[n+]1CCCn1cc(CCCCNC(=O)N=C(N)NCCC[C@@H]2NC(=O)CCC(=O)NCCCCNC(=O)N=C(N)NCCC[C@@H](C(=O)N[C@@H](CC(C)C)C(=O)N[C@@H](CCCNC(=N)N)C(=O)N[C@@H](Cc3ccc(O)cc3)C(N)=O)NC(=O)[C@H](Cc3ccc(O)cc3)NC2=O)nn1 [Compound 19]

- Ki [10]: 0.42 nM
- EC50, miniGsi recruitment assay (HEK293T-NlucN-mGsi/Y4R-NlucC cells) [11]: 73 nM
- pKi [12]: < 5
- pKi [13]: < 5.5
- pKi [14]: < 5
B1: cyclic peptide 11 (alkyne-functionalized precursor peptide) (peptide)
peptide: RYRLRY
modifications: N^α-succinyl; N^ω-[hex-5-ynylaminocarbonyl]-Arg at position 1; N^ω-[(aminobutyl)aminocarbonyl]-Arg at position 3; cyclized via the succinyl carboxylic group and the primary amino group of the carbamoylated arginine in position 3; C-terminal amide
notes: printed in three-letter code for the linear precursor 10: N^α-succinyl-N^ω[hex-5-ynylaminocarbonyl]-Arg-Tyr-N^ω-[(aminobutyl)aminocarbonyl]Arg-Leu-Arg-Tyr-amide; 11 is its cyclized form; source: synthetic peptide (SPPS of linear peptide 10, cyclization in solution, preparative HPLC)
